Molecular target: the molecule itself
Assay: native gel or EMSA; native PAGE (no SDS, no β-ME) of lysates of CHO-TrkBdelECD365-eGFP cells treated with vehicle, BDNF or MM12 (1.0 nM, 37 °C); Western blot with MM12

B1: TrkBdelECD365-eGFP (human truncated TrkB lacking the ECD up to residue 365, EJM retained) (domain or fragment)
chain: not shown
notes: EJM, transmembrane and intracellular parts retained; amplified from pGFP-hTrkB with the printed primers; The signal peptide of the vector pGFP-hTrkB is not described; also called hTrkBdelECD365-eGFP; TrkB lacking ECD365; source: CHO cells, stably transfected (CHO-TrkBdelECD365-eGFP), in lysate; not shown: eGFP, C-terminal, kept
  stoichiometry N: 2
